From doi:10.1101/2023.03.06.531343

Molecular target: VirE2-Venus (expressed in transgenic Arabidopsis roots) (Agrobacterium tumefaciens) (UniProt P0A3W8)
Test: co-IP

UniProt P0A3W8, sequence (P0A3W8 whole entry): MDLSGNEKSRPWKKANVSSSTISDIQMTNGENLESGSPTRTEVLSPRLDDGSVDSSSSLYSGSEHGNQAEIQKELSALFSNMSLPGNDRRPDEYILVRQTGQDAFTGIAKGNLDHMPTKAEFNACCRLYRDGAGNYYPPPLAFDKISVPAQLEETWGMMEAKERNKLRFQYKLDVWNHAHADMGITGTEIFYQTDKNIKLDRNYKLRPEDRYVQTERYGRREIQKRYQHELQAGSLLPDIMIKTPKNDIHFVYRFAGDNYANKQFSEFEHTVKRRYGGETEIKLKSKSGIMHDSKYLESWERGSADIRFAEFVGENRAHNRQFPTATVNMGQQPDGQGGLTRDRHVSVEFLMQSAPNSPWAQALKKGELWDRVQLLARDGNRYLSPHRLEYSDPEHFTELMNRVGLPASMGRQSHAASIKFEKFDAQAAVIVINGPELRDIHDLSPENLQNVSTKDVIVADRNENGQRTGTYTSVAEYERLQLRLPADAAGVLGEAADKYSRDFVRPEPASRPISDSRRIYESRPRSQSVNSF

Substance	percent of the input co-immunoprecipitated (% of the input)
myc-tagged myosin VIII-2 cargo binding domain (transgenic Arabidopsis roots) (domain or fragment)	4
myc-tagged myosin VIII-A cargo binding domain (transgenic Arabidopsis roots) (domain or fragment)	4
myc-tagged myosin XI-K cargo binding domain (transgenic Arabidopsis roots) (domain or fragment)	4
myc-tagged myosin VIII-B cargo binding domain (transgenic Arabidopsis roots) (domain or fragment)	4
